Test results reported in patent publication US20050124539A1 (Takeda / Millennium, published 2005).
Each block holds one binder with its values, some of them ahead of it. No end group written: not given here. *: point of attachment. 125I = [125I]*

Experiments:
[1] = target: T1, Human GPR7 (human, UniProt P48145 1-328); experiment: radioligand filter binding, membrane fraction of GPR7 expressing CHO cells
T1 construct: Full-length receptor expressed in CHO dhfr- cells; also called Human GPR7 receptor; GPR7 receptor
T1 sequence: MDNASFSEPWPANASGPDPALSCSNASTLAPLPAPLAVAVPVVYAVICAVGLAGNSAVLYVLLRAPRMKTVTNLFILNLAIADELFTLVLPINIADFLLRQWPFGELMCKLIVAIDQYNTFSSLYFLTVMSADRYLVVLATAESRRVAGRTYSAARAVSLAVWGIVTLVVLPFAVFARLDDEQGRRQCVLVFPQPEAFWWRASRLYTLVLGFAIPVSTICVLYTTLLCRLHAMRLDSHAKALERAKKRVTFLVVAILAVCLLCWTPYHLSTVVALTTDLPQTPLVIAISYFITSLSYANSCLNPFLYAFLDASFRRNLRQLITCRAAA
Method: (§1) Cell membrane fractions prepared from GPR7 expressing CHO cells and GPR8 expressing CHO cells, were diluted to various concentration with assay buffer (25 mM Tris-HCl, 5 mM EDTA, 0.05% CHAPS, 0.1% BSA, 0.5 mM PMSF, 1 μg/ml Pepstatin, 4 μg/ml E-64, 20 μg/ml Leupeptin, pH7.4), and 200 μl each of the diluent was dispensed into polypropilene test tube (Falcon 2053). In order to determine an amount of maximum binding, 2 μl of DMSO and 2 μl of 7 nM [Phe², ¹²⁵I-Tyr¹⁰]-Human GPR8 ligand (1-20) were added to the membrane fraction solution. Further, in order to determine a non-specific binding, 2 μl of 100 μM hGPR8L(1-23)/DMSO solution and 2 μl of 7 nM [Phe², ¹²⁵I-Tyr¹⁰]-Human GPR8 ligand (1-20) were added to the membrane fraction solution. The reaction was done at 25° C. for 75 minutes, and the reaction mixture was filtered by suction filtration using Whatman glassfilter (GF-F) treated with polyethyleneimine. After filtration, a radioactivity remaining on the filter was counted using γ-counter, and an amount of specific binding was estimated by subtracting an amount of non-specific binding from an amount of maximum binding. When the concentration of membrane fraction was changed, a specific binding of [Phe², ¹²⁵I-Tyr¹⁰]-Human GPR8 ligand (1-20) was perceived depending on the concentration of membrane fraction.
(§2) The IC₅₀ values were 0.13 nM and 0.039 nM, respectively. […]

[2] = target: T2, Human GPR8 receptor protein (human, UniProt P48146 1-333); experiment: radioligand filter binding, membrane fraction of GPR8 expressing CHO cells
T2 construct: Full-length receptor expressed in CHO dhfr- cells (CHO/GPR8)
T2 sequence (P48146 whole entry): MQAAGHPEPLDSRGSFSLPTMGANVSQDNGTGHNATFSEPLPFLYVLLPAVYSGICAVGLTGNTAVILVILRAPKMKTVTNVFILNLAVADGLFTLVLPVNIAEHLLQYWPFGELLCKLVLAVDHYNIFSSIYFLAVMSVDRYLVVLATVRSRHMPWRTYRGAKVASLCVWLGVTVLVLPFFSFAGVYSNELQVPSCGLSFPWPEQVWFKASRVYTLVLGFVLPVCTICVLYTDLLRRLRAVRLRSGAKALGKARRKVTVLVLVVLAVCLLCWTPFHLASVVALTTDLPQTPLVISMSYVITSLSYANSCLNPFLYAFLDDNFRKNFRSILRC
Method: as §1, §2

[3] = target: T1, Human GPR7; experiment: competition with [Phe2, 125I-Tyr10]-Human GPR8 ligand (1-20), membrane fraction of GPR7 expressing CHO cells, 15 µg/ml
Method: as §1, with “In” for “Cell membrane fractions prepared from GPR7 expressing CHO cells and GPR8 expressing CHO cells, were diluted to various concentration with assay buffer (25 mM Tris-HCl, 5 mM EDTA, 0.05% CHAPS, 0.1% BSA, 0.5 mM PMSF, 1 μg/ml Pepstatin, 4 μg/ml E-64, 20 μg/ml Leupeptin, pH7.4), and 200 μl each of the diluent was dispensed into polypropilene test tube (Falcon 2053). In”
The inhibition of binding for GPR7 receptor or GPR8 receptor in the test sample (the inhibition rate (%)) is represented by the ratio of the values obtained by subtracting a radioactivity (X) remaining on the filter in the case where the test sample and of [Phe², ¹²⁵I-Tyr¹⁰]-Human GPR8 ligand (1-20) were added from the maximum binding (TB) to the specific binding (SB) ((TB−X)/SB×100(%)).
as §2

[4] = target: T1, Human GPR7; experiment: cell-based or functional assay
[5] = target: T2, Human GPR8 receptor protein; experiment: competition with [125I-Tyr10]-hGPR8L(1-23), membrane fraction of GPR8 expressing CHO cells
Method: Cell membrane fraction prepared from Human GPR8 expressing cells was diluted to various concentration with assay buffer (25 mM Tris-HCl, 5 mM EDTA, 0.05% CHAPS (3-[(3-Cholamidopropyl) Dimethyl-Ammonio]-1-Propanesulfonate), 0.1% BSA, 0.25 mM PMSF, 1 μg/ml Pepstatin, 20 μg/ml Leupeptin, pH7.4), and 200 μl each of the diluent was dispensed into polypropilene test tube (Falcon 2053). In order to determine an amount of maximum binding (TB), […] of DMSO and 2 μl of 7 nM [¹²⁵I-Tyr²]-hGPR8L(1-23) or [¹²⁵I-Tyr¹⁰]-hGPR8L(1-23) were added to the membrane fraction solution. Further, in order to determine a non-specific binding (NSB), 2 μt of 100 μM hGPR8L(1-23)/DMSO solution and 2 μl of 7 nM [¹²⁵I]-Tyr²]-hGPR8L(1-23) or [¹²⁵I-Tyr¹⁰]-hGPR8L(1-23) were added to the membrane fraction solution. The reaction was done at 25° C. for 60 minutes, and the reaction mixture was filtered by suction filtration using Whatman glassfilter (GF-F) treated with polyethyleneimine. After filtration, a radioactivity remaining on the filter was counted using γ-counter, and an amount of specific binding (SB) was estimated by subtracting an amount of non-specific binding from an amount of maximum binding. Since the specific binding in the case where [¹²⁵I-Tyr¹⁰]-hGPR8L(1-23) was used, was twice as much as that in the case where [¹²⁵1-Tyr²]-hGPR8L(1-23) was used, in practice, [¹²⁵I-Tyr¹⁰]-hGPR8L(1-23) was used in the assay. When the concentration of membrane fraction was changed, a specific binding of [¹²⁵I-Tyr¹⁰]-hGPR8L(1-23) was perceived depending on the concentration of membrane fraction.
A receptor binding activity of human- and porcine-homologue derivatives of GPR8 ligand peptide, wherein the synthesis method has been described in the specification, was measured using a membrane fraction of GPR8 expressing CHO cells and [¹²⁵-Tyr¹⁰]-hGPR8L(1-23) by the method described in Reference Example 43.

[6] = target: T1, Human GPR7; experiment: cell-based or functional assay; remark: listed apart in the source
[7] = target: T3, TGR26, rat-derived G protein-coupled receptor protein (rat, UniProt Q56UD9 1-329); experiment: competition with [125I-Tyr10]-hGPR8L(1-23), membrane fraction of TGR26 expressing CHO cells, 3 µg/ml
T3 construct: Expressed in CHO dhfr- cells from pAK-rGPR7; also called rat TGR26; TGR26 receptor
T3 sequence: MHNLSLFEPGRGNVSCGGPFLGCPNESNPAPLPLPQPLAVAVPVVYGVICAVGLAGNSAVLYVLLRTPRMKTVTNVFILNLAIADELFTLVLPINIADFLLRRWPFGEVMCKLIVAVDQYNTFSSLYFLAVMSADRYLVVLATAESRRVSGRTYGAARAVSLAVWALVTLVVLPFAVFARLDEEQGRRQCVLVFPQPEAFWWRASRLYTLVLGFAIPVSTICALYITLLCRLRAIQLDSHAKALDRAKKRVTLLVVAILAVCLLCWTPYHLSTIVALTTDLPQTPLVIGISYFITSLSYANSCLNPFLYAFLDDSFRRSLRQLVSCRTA
Method: Cell membrane fraction prepared from TGR26 expressing cells was diluted to various concentration with assay buffer (25 mM Tris-HCl, 5 mM EDTA, 0.05% CHAPS (3-[(3-Cholamidopropyl) Dimethyl-Ammonio]-1-Propanesulfonate), 0.1% BSA, 0.5 mM PMSF, 1 μg/ml Pepstatin, 20 μg/ml Leupeptin, 4 μg/ml E-64, pH7.4), and 200 μl each of the diluent was dispensed into polypropilene test tube (Falcon 2053). In order to determine an amount of maximum binding, 2 μl of DMSO and 2 μl of 7 nM [¹²⁵-Tyr¹⁰]-hGPR8L(1-23) were added to the membrane fraction solution. Further, in order to determine a non-specific binding, 2 μl of 100 μM hGPR8L(1-23)/DMSO solution and 2 μl of 7 nM [¹²⁵I]-Tyr¹⁰]-hGPR8L(1-23) were added to the membrane fraction solution. The reaction was done at 25° C. for 75 minutes, and the reaction mixture was filtered by suction filtration using Whatman glassfilter (GF-F) treated with polyethyleneimine. In addition, the filter was washed twice with 1.5 ml of washing buffer (25 mM Tris-HCl, 5 mM EDTA, 0.05% CHAPS, 0.1% BSA, pH7.4). After filtration, a radioactivity remaining on the filter was counted using γ-counter, and an amount of specific binding was estimated by subtracting an amount of non-specific binding from an amount of maximum binding. […]

- binding result [1]: binds
- binding result [2]: binds
B1: [Phe^2, ^125I-Tyr^10]-Human GPR8 ligand (1-20) (peptide)
peptide: WFKHVASPRY(125I)HTVGRAAGLL
notes: Radioligand made from [Phe2]; also called labeled [Phe^2]; Human GPR8 ligand (1-20)

- IC50 [3]: 0.13 nM
- inhibition of intracellular cAMP production (IC50) [4]: 0.025 nM
- IC50 [5]: 0.25 nM
- Promoting activity to GTPγS binding (EC50 nM) [6]: 0.74 nM
- IC50 [7]: 0.12 nM
B2: human homologue of GPR8 ligand peptide consisting of 23 residues (peptide)
peptide: WYKHVASPRYHTVGRAAGLLMGL
notes: also called hGPR8L(1-23); Human GPR8 ligand (1-23)
